Bridge positions count the residues as written; N and C are the ends. Square brackets hold non-standard residues; d marks the D form. Ends that are not written are not given here. S5 = C=CCCC[C@](C)(N)C(=O)O
B1: ^BT1^S (biotinylated analog of T1^S) (peptide)
peptide: VRKRT[S5]RRL[S5]QERELVE
modifications: staple 6-10; also: biotinylated, site not given here
notes: Stapled form of T1, biotinylated for the pull-down

Target: T1, native, full length, EGFR (wtEGFR) (UniProt P00533 25-1210, limits assumed)
T1 construct: whole, on cells; The pull-down used cell lysates, not intact cells; the residue numbers used (L858R, T790M) fit human EGFR; also called wild type EGFR; Epidermal Growth Factor Receptor
Test: streptavidin-bead pull-down from lysates of wtEGFR-transfected CHO-K1 cells, anti-EGFR immunoblot

| Binder | binding result |
| --- | --- |
| B1 | no binding (tested: 25 µM) |
| VRKRTLRRLLQERELVE (also: biotinylated, site not given here) [^BJM-WT (biotinylated analog of JM-WT)] | no binding (tested: 25 µM) |

Source: US20150031612A1 (YALE UNIVERSITY, published 2015)
